Measured values published in patent publication US20230272086A1 (CHIA TAI TIANQING PHARMACEUTICAL GROUP, published 2023).

Columns and labels:
[1] = biological target: T1, human ST2 (hST2, Interleukin-1 receptor-like 1 isoform A) on cells (human, UniProt Q01638 19-556); assay: cell-based or functional assay
T1 sequence: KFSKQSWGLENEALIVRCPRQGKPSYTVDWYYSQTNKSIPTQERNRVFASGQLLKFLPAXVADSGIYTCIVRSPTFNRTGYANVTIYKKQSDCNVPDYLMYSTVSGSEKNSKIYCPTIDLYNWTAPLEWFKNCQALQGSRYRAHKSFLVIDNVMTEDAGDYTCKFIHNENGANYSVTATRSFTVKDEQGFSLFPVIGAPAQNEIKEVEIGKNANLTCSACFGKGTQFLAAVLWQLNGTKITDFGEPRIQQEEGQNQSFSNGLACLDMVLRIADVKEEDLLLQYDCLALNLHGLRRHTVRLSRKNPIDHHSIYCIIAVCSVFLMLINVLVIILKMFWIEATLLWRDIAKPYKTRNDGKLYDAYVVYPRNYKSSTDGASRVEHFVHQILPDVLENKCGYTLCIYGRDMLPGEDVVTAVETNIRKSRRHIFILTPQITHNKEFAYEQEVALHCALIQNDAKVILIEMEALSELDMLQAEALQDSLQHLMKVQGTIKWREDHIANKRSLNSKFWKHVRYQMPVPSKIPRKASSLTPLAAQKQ

[2] = biological target: T2, recombinant protein containing hST2 extracellular domain with mouse antibody heavy chain Fc tag (hST2-ECD-mFc) (human); assay: ELISA, plate coated with hST2-ECD-mFc, antibody not heated
T2 construct: Used for SPR and for ELISA of chimeric and humanized antibodies; also called human ST2 antigen
T2 chain: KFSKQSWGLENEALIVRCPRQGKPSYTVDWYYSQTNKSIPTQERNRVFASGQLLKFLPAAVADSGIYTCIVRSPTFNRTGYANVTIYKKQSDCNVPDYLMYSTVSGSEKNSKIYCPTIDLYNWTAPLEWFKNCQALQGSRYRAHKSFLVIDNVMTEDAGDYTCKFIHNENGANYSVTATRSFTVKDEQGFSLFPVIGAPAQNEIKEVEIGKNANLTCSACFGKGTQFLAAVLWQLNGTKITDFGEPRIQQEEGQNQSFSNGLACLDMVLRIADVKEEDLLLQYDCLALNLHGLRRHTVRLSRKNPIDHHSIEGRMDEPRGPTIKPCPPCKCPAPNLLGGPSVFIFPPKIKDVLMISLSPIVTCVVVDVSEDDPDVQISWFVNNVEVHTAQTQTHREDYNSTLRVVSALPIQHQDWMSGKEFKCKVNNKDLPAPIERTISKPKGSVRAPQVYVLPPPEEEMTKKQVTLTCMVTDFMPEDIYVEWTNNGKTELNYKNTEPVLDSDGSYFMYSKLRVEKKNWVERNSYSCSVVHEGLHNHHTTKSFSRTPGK
Description: The anti-ST2 antibodies were diluted with PBS buffer to a concentration of 1.5 mg/mL. […], the samples were assayed by ELISA for their binding activity for an antigen The ELISA procedure is as follows: A 96-well plate was coated with 2 µg/mL hST2-ECD-mFc as the antigen at 100 µL/well and incubated at 4° C. overnight. After the antigen not adsorbed was well washed off, the non-specific binding sites were blocked with a blocking buffer (PBST containing 1% bovine serum albumin). After the plate was washed three times with a washing buffer (PBST, PBS containing 0.05% (v/v) Tween 20), the anti-ST2 antibodies (serially diluted 3-fold from an initial concentration of 1.5 µg/mL to 8 concentrations) were added at 100 µL/well, and the plate was incubated at 37° C. for 1 h. […] After the plate was incubated at room temperature for 5 min, a stop solution (2 N H₂SO₄) was added to stop the reactions. The signals were read at 450 nm using a plate reader (PE, Envision). The data were analyzed using GraphPad Prism5, and the EC₅₀ values were calculated.

[3] = biological target: T2, recombinant protein containing hST2 …; assay: SPR (Biacore T200), hST2-ECD-mFc captured by anti-mouse IgG on CM5, antibody as analyte, 1:1 model
Description: (§1) The reaction signals were detected in real time using a Biacore instrument (Cytiva, BiacoreT200), and then an association-dissociation curve was obtained. After the completion of dissociation in each cycle, the biochip was regenerated with a regeneration solution for the next capture; the procedure was repeated until the affinity of the different antibodies for ST2 was determined. The acquired data were finally analyzed using the GE BIAevaluation software with a 1:1 (Langmuir) binding model to determine the association rate constants ka (kon) and the dissociation rate constants kd (koff), and the dissociation constants KD were given by KD = kd/ka. The determined affinity of the anti-ST2 antibody for human ST2 antigen (hST2-ECD-mFc), cynomolgus monkey ST2 antigen (Cyno-ST2-his, Sino biological, 90915-C08H) and the determined affinity of the anti-ST2 chimeric antibodies for ST2 were shown in Table 5.
(§2) The humanized antibodies hz31C81-1.1 (the amino acid sequence of the heavy chain set forth in SEQ ID NO: 75 and the amino acid sequence of the light chain set forth in SEQ ID NO: 81) and hz31C8-1.2 (the amino acid sequence of the heavy chain set forth in SEQ ID NO: 77 and the amino acid sequence of the light chain set forth in SEQ ID NO: 81) were subjected to affinity, binding, blocking and cell function analyses using the methods described in Example 4, Example 5, Example 6, Example 7, Example 8, Example 9 and Example 10. In the present disclosure, “hz” and “xi” denote humanized antibodies and chimeric antibodies, respectively; for example, “hz31C81-1.1” and “hz31C81-1.2” represent humanized 31C81-1.1 and 31C81-1.2 antibodies, and “xi31C8” represents a chimeric 31C8 antibody.

[4] = biological target: T3, cynomolgus monkey ST2 antigen (Cyno-ST2-his, Sino biological, 90915-C08H) (cynomolgus monkey, UniProt Q01638 19-328 (human entry)); assay: SPR (Biacore T200), Cyno-ST2-his captured by anti-his antibody on CM5, antibody as analyte, 1:1 model
T3 construct: Bought protein; not shown: his tag
T3 chain: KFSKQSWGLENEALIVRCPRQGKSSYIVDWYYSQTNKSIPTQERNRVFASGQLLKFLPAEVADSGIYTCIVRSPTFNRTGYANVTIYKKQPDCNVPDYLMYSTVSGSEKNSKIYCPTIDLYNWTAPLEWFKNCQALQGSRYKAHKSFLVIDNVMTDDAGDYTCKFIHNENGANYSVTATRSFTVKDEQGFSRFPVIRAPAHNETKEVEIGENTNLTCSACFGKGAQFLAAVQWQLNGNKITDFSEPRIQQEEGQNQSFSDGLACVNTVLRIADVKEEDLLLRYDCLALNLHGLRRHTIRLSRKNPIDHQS
Description: as §1, §2

Binder	IC50, blocking of the IL33/ST2-induced IL5 secretion on CD4+ T cells (hIL33 plus IL2 co-stimulation) [1] [nM]	EC50 [2] [nM]	Kd [3] [nM]	Kd [4] [nM]
RG6149 (antibody Ab2 in CN104334582, prepared in-house) (antibody, human IgG2, kappa, V domains shown, Control anti-ST2 antibody) VH: EVQLVQSGAEVKKPGESLKISCKGSGYSFTNYWIGWVRQMPGKGLEWMGIIYPGNSDTRFSPSFQGQVTISADKSITTAYLQWSSLKASDTAMYYCARHGTSSDYYGLDVWGQGTTVTVSS VL: not shown	0.32	0.143	0.128	0.069
Chimeric 7D1 (antibody, human IgG2, kappa, V domains shown, also called xi7D1) VH: QVQLQQSGAELVRPGASVTLSCKASGYTFTDYEMHWVKQTPVHGLDWIGTIDPETGDTAYNQKFKGRATLTADKSSSTAYMELSSLTSEDSAVYYCTRYSYTNSPYGMDYWGQGTSVTVSS VL: DVVMTQTPKFLLVSAGDRVTITCKASQSVSNDVAWYQQKPGQSPKLLIYYASNRYTGVPDRFTGSGYGTDFTFTINTVQAEDLAVYFCQQDYSSPYTFGGGTKLEIKR	0.12			
Humanized 31C8-1.1 (antibody, human IgG2, kappa, V domains shown, also called hz31C8-1.1; hz31C81-1.1) VH: EVQLVQSGAEVKKPGATVKISCKASGYIFIDSEMHWVQQAPGKGLEWMGAIDPETGDTVYAEKFQGRVTITADKSSSTAYMELSSLRSEDTAVYYCTGSTTDYYFAYWGQGTLVTVSS VL: DIQMTQSPSSLSASVGDRVTITCRSSKSLLHSNGIIYLYWYQQKPGKAPKLLIYQLSNLASGVPSRFSSSGSGTDFTLTISSLQPEDFATYYCAQNLELPFTFGQGTKVEIKR		0.0906	0.0836	2.47
Humanized 31C8-1.2 (antibody, human IgG2, kappa, V domains shown, also called hz31C8-1.2; hz31C81-1.2) VH: QVQLVQSGAKVKKPGATVKISCKASGYIFIDSEMHWVQQAPGKGLEWMGAIDPETGDTVYAKKFKGRVTITADKSSSTAYMELSSLRSEDTAVYYCTGSTTDYYFAYWGQGTLVTVSS VL: DIQMTQSPSSLSASVGDRVTITCRSSKSLLHSNGIIYLYWYQQKPGKAPKLLIYQLSNLASGVPSRFSSSGSGTDFTLTISSLQPEDFATYYCAQNLELPFTFGQGTKVEIKR		0.092	0.145	5.27
GSK3772847 (antibody STLM208 in CN104411333, prepared in-house) (antibody, human IgG2, kappa, V domains shown, Control anti-ST2 antibody) VH: EVQLLESGGGLVQPGGSLRLSCAASGFTFSIYDMIWVRQAPGKGLEWVSSIRGEGGGTYYADSVKGRFTISRDNSKNTLYLQMNSLRAEDTAVYYCARDPWSTEGSFFVLDYWGQGTLVTVSS VL: EIVLTQSPATLSLSPGERATLSCRASQSVDDDLAWYQQKPGQAPRLLIYDASNRATGIPARFSGSGSGTDFTLTISSLEPEDFAVYYCQQYITAPLTFGQGTKVEIKR		0.109	0.0958	0.0923
Chimeric 31C8 (antibody, human IgG2, kappa, V domains shown, also called xi31C8) VH: QVQLQQSGPELVRPGASVTLSCKASGYIFIDSEMHWVKQTPVHGLEWIGAIDPETGDTVYNQKFKGKATLTADKSSSTASMELSSLTSEDSAVYYCTGSTTDYYFAYWGQGTTLTVSS VL: DIVMTQAAFSNPVTLGTSASISCRSSKSLLHSNGIIYLYWYLQKPGQSPQLLIYQMSNLASGVPDRFSSSGSGTDFTLRISRVEAEDVGVYYCAQNLELPFTFGSGTKLEIKR	0.09	0.0744	0.129	1.62
Chimeric 17E2 (antibody, human IgG2, kappa, V domains shown, also called xi17E2) VH: QVQLQQSGAELVRPGASVTLSCKASGYTFTDYEMHWVKQTPVLGLEWIGAIDPETGDTAYNQKFKGKATLTADKSSSTAYMELSSLASEDSAVYYCIRVDSNYDYFDYWGQDTTLTVSS VL: DIVLTQSPPILSASPGEKVTMTCRASSSVSYMHWYQQKPGSSPKPWIYDTSNLASGVPARFSGSGSGTSYSLTISRVEAEDAATYYCQQWSSNPLTFGAGTKLELKR	0.08			
